According to US11732029B2, “Methods and compositions for the treatment of wounds” (The University of Chicago, priority 2017, dated 2023):

What was measured:
PlGF-1 = target: T1, PlGF-1 (Homo sapiens, UniProt P49763); assay: Recombinant GF binding to the vWF recombinant protein and A1 HBD peptide (ELISA); set-up: All growth factors (GFs) and chemokines were purchased in their mature forms; purchased PeproTech; host or cells: Escherichia coli; conditions: plate coated with vWF protein, A1 domain or HBD peptide, 1 μg/mL GF
T1 sequence (P49763 19-149 isoform P49763-2 limits assumed): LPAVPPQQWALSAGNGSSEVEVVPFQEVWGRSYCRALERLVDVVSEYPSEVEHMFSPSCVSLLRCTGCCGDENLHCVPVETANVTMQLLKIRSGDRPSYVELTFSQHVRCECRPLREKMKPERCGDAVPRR
Procedure: (§1) ELISA tests were performed as described above. In brief, ELISA plates were coated with 1 μg/mL of FL-vWF (WT or R1341Q), 1 μg/mL of vWF A1 recombinant protein (U-Protein Express) or 1 μg/mL of vWF A1 HBD peptide (sequence […], (SEQ ID NO:50) chemically synthesized by Genscript) at 37° C. overnight. After blocking with 2% BSA solution containing PBS-T, 1 μg/mL of the recombinant human proteins VEGF-A121, VEGF-A165, PlGF-1, PlGF-2, PDGF-BB, FGF-2, CXCL-12α and CXCL-12γ were added. 1 μg/mL of BSA served as non-binding protein control. Bound GF or chemokine was detected with biotinylated antibodies for human VEGF-A, PlGF, PDGF-BB, FGF-2, or CXCL-12 (R & D Systems). The antibodies were detected by streptavidin-HRP (R & D Systems). Color development and the absorbance measurement were done as described above.

PlGF-2 [1] = target: T2, PlGF-2 (Homo sapiens, UniProt P49763); assay: as above; set-up: All growth factors (GFs) and chemokines were purchased in their mature forms; purchased PeproTech; host or cells: Escherichia coli; conditions: plate coated with vWF protein, A1 domain or HBD peptide, 1 μg/mL GF
T2 sequence (P49763 19-170 isoform P49763-3 limits assumed): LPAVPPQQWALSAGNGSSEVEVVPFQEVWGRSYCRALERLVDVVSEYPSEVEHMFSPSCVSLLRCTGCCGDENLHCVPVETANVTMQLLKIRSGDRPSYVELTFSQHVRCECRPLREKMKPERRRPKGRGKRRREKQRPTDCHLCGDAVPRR
Procedure: as §1

VEGF-A121 [2] = target: T3, VEGF-A121 (Homo sapiens, UniProt P15692); assay: as above; set-up: All growth factors (GFs) and chemokines were purchased in their mature forms; purchased PeproTech; host or cells: Escherichia coli; conditions: plate coated with vWF protein, A1 domain or HBD peptide, 1 μg/mL GF
T3 sequence (P15692 27-147 isoform P15692-9 limits assumed): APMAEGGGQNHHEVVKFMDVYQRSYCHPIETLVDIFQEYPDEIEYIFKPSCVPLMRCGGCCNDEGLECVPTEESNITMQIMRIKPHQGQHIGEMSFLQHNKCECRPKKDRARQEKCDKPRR
Procedure: as §1

VEGF-A = assay: vWF binding to VEGF-A in human serum (sandwich ELISA, immunoprecipitation and Western blotting); conditions: two lots of pooled serum from healthy donors
Procedure: One mL of human serum was immunoprecipitated with 10 μg of monoclonal rabbit anti-human vWF antibody (SinoBiological) or control rabbit IgG (EMD Millipore) and 50 μL of protein G-agarose (Thermo Fisher Scientific) overnight at 4° C. The resulting pellet was dissolved in Laemmli buffer and subjected to Western blot analysis. Western blot analysis was performed after SDS-PAGE (4-20% gradient gel, Bio-Rad) and transfer onto MS nitrocellulose membranes (Membrane Solutions). GFs were detected using 1 μg/mL biotinylated antibodies for human VEGF-A (R & D Systems), followed by incubation with HRP conjugated streptavidin (R & D Systems) at 1:200 dilutions. The proteins were detected and visualized with the ECL Plus Western Blotting Detection System (GE Healthcare).
The study was approved by the ethics committees of the Hammersmith, Queen Charlotte's, and Royal Marsden hospitals; informed consent was obtained from all individuals in accordance with the Declaration of Helsinki. ELISA plates (med-binding) were coated with 10 μg/mL rabbit monoclonal anti-human vWF antibody (clone: 111, SinoBiological). […] The antibodies were detected by streptavidin-HRP (R & D Systems). Color development and the absorbance measurement were done as described above.

PlGF-2 [3] = target: T2, PlGF-2; assay: vWF binding to recombinant GFs (ELISA); set-up: All GFs and chemokines were purchased in their mature forms; purchased PeproTech; host or cells: Escherichia coli; conditions: VEGF-A121 signal as baseline
Procedure: (§2) ELISA tests were performed as previously reported1. In brief, ELISA plates (med-binding, Greiner Bio-One) were coated with 50 nM GFs at 37° C. for 2 hrs. After blocking with 2% BSA solution containing PBS-T, 1 μg/mL of plasma-derived vWF (EMD Millipore) was added. Bound vWF was detected with 1 μg/mL of rabbit anti-human vWF antibody (Sino Biological). Then, HRP conjugated goat anti-rabbit antibody (Jackson ImmunoResearch) was added. After 60 min of incubation, 50 μL TMB substrate (Sigma-Aldrich) was added. The reaction was stopped by adding 25 μL of 2N H2SO4. Subsequently, the absorbance at 450 nm was measured and subtracted the absorbance at 570 nm.

BMP-2 = target: T4, BMP-2 (Homo sapiens, UniProt P12643); assay: vWF binding to recombinant GFs (ELISA); set-up: All GFs and chemokines were purchased in their mature forms; purchased PeproTech; host or cells: Escherichia coli; conditions: VEGF-A121 signal as baseline
T4 sequence (P12643 283-396): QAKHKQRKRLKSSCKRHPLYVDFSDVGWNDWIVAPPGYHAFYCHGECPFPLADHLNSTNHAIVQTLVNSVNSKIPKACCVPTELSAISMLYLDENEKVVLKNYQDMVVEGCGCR
Procedure: as §2

VEGF-A121 [4] = target: T3, VEGF-A121; assay: vWF binding to recombinant GFs (ELISA); set-up: All GFs and chemokines were purchased in their mature forms; purchased PeproTech; host or cells: Escherichia coli; conditions: non-binding reference
Procedure: as §2

FGF-2 = FGF-2 (Homo sapiens, UniProt P09038); assay: vWF binding to recombinant GFs (ELISA); set-up: All GFs and chemokines were purchased in their mature forms; purchased PeproTech; host or cells: Escherichia coli; conditions: VEGF-A121 signal as baseline
Procedure: as §2

FGF-2, sequence (P09038 143-288): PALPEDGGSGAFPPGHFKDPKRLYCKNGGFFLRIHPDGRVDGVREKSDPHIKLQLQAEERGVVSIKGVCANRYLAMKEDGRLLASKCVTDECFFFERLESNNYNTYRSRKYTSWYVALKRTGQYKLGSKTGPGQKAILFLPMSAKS

Substance	binding to PlGF-1 (PlGF-1)	binding to PlGF-2 (PlGF-2 [1])	binding to VEGF-A121 (VEGF-A121 [2])	vWF binding to VEGF-A in pooled human serum (VEGF-A)	vWF binding to PlGF-2 (PlGF-2 [3])	vWF binding to BMP-2 (BMP-2)	vWF binding to VEGF-A121 (VEGF-A121 [4])	vWF binding to FGF-2 (FGF-2)
YIGLKDRKRPSELRRIASQVKYAC [vWF HBD]	neither VEGF-A121 nor PlGF-1 were able to bind	showed binding	neither VEGF-A121 nor PlGF-1 were able to bind	–	–	–	–	–
vWF: human plasma-derived von Willebrand factor (EMD Millipore)	–	–	–	binds to VEGF-A	bound	strong binding	not	bound
